Patent publication US20140030266A1

Assays:
[1] = molecular target: MIF receptor CD74 ectodomain (CD74 73-232, sCD74) (UniProt P04233); assay: competition binding assay on sCD74, biotinylated human MIF as competitor
[2] = molecular target: MIF receptor CD74 ectodomain (CD74 73-232, sCD74) (UniProt P04233); assay: SPR (BIAcore 2000), sCD74 immobilized, ligand in solution
[3] = molecular target: MIF receptor CD74 ectodomain (CD74 73-232, sCD74) (UniProt P04233); assay: competition binding assay on sCD74 with biotinylated human MIF as the competed ligand [panel A]
[4] = molecular target: MIF receptor CD74 ectodomain (CD74 73-232, sCD74) (UniProt P04233); assay: SPR (BIAcore 2000), sCD74 immobilized

Substance “human D-dopachrome tautomerase (D-DT), recombinant native-sequence protein (from UniProt P30046 2-118) (ligand)” has a maximal effect on MIF binding compared with MIF [1] of 50%, a Kd [2] of 5.42 nM and an IC50 (read off the curve) [3] of 0.3 µM. For the same substance, the affinity relative to MIF (% lower than MIF) [4] was 60, the fold higher binding rate than MIF [4] was 3 fold and the koff [4] was 0.00066 s⁻¹. For the same substance, the kon [4] was 120000 M⁻¹ s⁻¹.
